Measurements taken from US20190375835A1.

Tests used:
macrophages (FcR) = assay: cell-based or functional assay
soluble TNF-alpha = soluble TNF-alpha (UniProt P01375); assay: cell-based or functional assay
soluble TNF-alpha, sequence (P01375 77-233 limits assumed): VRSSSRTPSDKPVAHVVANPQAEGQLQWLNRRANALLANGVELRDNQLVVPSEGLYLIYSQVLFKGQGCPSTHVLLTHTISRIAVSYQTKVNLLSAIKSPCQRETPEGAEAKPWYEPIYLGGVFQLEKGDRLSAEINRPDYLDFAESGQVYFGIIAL

Row | phagocytosis (MFI 37°C - MFI 4°C) in the presence of IVIg 1 mg/ml (macrophages (FcR)) | phagocytosis value (MFI 37°C - MFI 4°C, arbitrary unit) (soluble TNF-alpha) | Substance
1 | 6.72 MFI | 12.5 MFI | Humira antibody from Abbott (commercial adalimumab)
2 | 13.3 MFI | 15 MFI | transgenically produced adalimumab antibody (purified from the milk of transgenic goats, glycosylated)
